Source: article PMC4198461

Target: T1, TRPV2, Q9WUD2
T1 chain: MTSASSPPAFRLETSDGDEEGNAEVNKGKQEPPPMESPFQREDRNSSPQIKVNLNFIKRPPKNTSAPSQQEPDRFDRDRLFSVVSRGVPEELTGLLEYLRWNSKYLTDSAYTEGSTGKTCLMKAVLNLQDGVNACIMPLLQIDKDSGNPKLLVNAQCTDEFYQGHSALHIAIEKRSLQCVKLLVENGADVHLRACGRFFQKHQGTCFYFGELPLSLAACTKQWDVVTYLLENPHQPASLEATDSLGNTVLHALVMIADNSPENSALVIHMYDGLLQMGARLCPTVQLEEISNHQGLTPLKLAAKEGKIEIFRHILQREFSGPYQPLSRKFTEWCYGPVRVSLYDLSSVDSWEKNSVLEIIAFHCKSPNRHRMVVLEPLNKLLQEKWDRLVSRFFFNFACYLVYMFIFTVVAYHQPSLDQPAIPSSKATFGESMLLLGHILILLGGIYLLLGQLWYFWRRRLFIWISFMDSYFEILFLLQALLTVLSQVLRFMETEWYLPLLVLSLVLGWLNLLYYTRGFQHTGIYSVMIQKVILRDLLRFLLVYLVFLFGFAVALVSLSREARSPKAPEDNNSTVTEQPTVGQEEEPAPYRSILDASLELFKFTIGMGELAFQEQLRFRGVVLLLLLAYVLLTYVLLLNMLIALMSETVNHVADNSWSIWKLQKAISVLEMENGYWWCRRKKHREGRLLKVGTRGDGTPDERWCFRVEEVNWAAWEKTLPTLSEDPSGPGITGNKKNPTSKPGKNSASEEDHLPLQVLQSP
Test: SEC + native gel or EMSA + other: negative-stain EM
Conditions: remark: other sources report otherwise

- stoichiometry N: 4
B1: TRPV2, Q9WUD2 1-761 (natural protein)
chain: MTSASSPPAFRLETSDGDEEGNAEVNKGKQEPPPMESPFQREDRNSSPQIKVNLNFIKRPPKNTSAPSQQEPDRFDRDRLFSVVSRGVPEELTGLLEYLRWNSKYLTDSAYTEGSTGKTCLMKAVLNLQDGVNACIMPLLQIDKDSGNPKLLVNAQCTDEFYQGHSALHIAIEKRSLQCVKLLVENGADVHLRACGRFFQKHQGTCFYFGELPLSLAACTKQWDVVTYLLENPHQPASLEATDSLGNTVLHALVMIADNSPENSALVIHMYDGLLQMGARLCPTVQLEEISNHQGLTPLKLAAKEGKIEIFRHILQREFSGPYQPLSRKFTEWCYGPVRVSLYDLSSVDSWEKNSVLEIIAFHCKSPNRHRMVVLEPLNKLLQEKWDRLVSRFFFNFACYLVYMFIFTVVAYHQPSLDQPAIPSSKATFGESMLLLGHILILLGGIYLLLGQLWYFWRRRLFIWISFMDSYFEILFLLQALLTVLSQVLRFMETEWYLPLLVLSLVLGWLNLLYYTRGFQHTGIYSVMIQKVILRDLLRFLLVYLVFLFGFAVALVSLSREARSPKAPEDNNSTVTEQPTVGQEEEPAPYRSILDASLELFKFTIGMGELAFQEQLRFRGVVLLLLLAYVLLTYVLLLNMLIALMSETVNHVADNSWSIWKLQKAISVLEMENGYWWCRRKKHREGRLLKVGTRGDGTPDERWCFRVEEVNWAAWEKTLPTLSEDPSGPGITGNKKNPTSKPGKNSASEEDHLPLQVLQSP
